Source: IntAct's records for PubMed 16996049

B1: Partitioning defective protein 6 (Caenorhabditis elegans), Q9NAN2 (parent)
chain: MSYNGSYHQNHHSTLQVKSKFDSEWRRFSIPMHSASGVSYDGFRSLVEKLHHLESVQFTLCYNSTGGDLLPITNDDNLRKSFESARPLLRLLIQRRGESWEEKYGYGTDSDKRWKGISSLMAQKPPKRSYSISNPEDFRQVSAIIDVDIVPEAHRRVRLCKHGQERPLGFYIRDGTSVRVTERGVVKVSGIFISRLVDGGLAESTGLLGVNDEVLEVNGIEVLGKTLDQVTDMMVANAHNLIITVKPANQRNTLSRGPSQQGTPNASEMSAATAAATGGIQRPMKMNGSSDGSYHPKQHDANDSDSGED

Variants of: B1
Conditions: with cdc42_caeel cdc-42, Q05062
Chain of cdc42_caeel cdc-42, Q05062 (Q05062 whole entry): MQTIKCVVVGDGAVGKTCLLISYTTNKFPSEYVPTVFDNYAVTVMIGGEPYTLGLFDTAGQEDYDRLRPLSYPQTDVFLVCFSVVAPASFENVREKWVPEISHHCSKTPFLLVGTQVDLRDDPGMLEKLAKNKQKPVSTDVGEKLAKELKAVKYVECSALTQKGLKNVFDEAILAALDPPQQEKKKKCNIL

Variant | effect of a mutation on the interaction
MSYNGSYHQNHHSTLQVKSKFDSEWRRFSIPMHSASGVSYDGFRSLVEKLHHLESVQFTLCYNSTGGDLLPITNDDNLRKSFESARPLLRLLIQRRGESWEEKYGYGTDSDKRWKGISSLMAQKPPKRSYSISNPEDFRQAAAAADVDIVPEAHRRVRLCKHGQERPLGFYIRDGTSVRVTERGVVKVSGIFISRLVDGGLAESTGLLGVNDEVLEVNGIEVLGKTLDQVTDMMVANAHNLIITVKPANQRNTLSRGPSQQGTPNASEMSAATAAATGGIQRPMKMNGSSDGSYHPKQHDANDSDSGED [V141A;S142A;I144A;I145A] | disrupting interaction
MSYNGSYHQNHHSTLQVKSKFDSEWRRFSIPMHSASGVSYDGFRSLVEKLHHLESVQFTLCYNSTGGDLLPITNDDNLRKSFESARPLLRLLIQRRGESWEEKYGYGTDSDKRWKGISSLMAQKPPKRSYSISNAEAAAQVSAIIDVDIVPEAHRRVRLCKHGQERPLGFYIRDGTSVRVTERGVVKVSGIFISRLVDGGLAESTGLLGVNDEVLEVNGIEVLGKTLDQVTDMMVANAHNLIITVKPANQRNTLSRGPSQQGTPNASEMSAATAAATGGIQRPMKMNGSSDGSYHPKQHDANDSDSGED [P135A;D137A;F138A;R139A] | disrupting interaction
